Measured values: article PMC3185441

Columns and labels:
Assay in all cases: fluorescence protection assay
Thrombin = Thrombin (UniProt P00734;P00734 328-363;364-622)
alpha-fetoprotein (AFP) = target: T1, alpha-fetoprotein (AFP) (UniProt P02771 19-609)
T1 sequence: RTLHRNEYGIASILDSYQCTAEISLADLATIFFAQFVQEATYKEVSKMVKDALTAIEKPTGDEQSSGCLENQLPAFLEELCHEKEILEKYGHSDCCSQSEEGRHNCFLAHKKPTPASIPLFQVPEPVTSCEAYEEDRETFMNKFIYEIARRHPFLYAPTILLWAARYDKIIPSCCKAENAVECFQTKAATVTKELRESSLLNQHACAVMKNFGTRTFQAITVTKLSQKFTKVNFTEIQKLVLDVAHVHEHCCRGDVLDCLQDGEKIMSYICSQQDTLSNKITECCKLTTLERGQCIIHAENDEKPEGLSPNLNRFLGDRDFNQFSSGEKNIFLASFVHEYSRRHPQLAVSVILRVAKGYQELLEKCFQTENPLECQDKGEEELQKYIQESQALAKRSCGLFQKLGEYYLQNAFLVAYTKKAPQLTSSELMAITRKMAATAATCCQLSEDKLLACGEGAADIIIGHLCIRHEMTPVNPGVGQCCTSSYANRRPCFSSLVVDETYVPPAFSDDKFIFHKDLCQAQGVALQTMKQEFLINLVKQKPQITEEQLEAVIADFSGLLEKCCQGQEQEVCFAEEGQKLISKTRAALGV

[1] = target: Carcinoembryonic antigen (CEA) (UniProt P06731 35-685)

Measured: binding result

Chain of Carcinoembryonic antigen (CEA) (P06731 35-685): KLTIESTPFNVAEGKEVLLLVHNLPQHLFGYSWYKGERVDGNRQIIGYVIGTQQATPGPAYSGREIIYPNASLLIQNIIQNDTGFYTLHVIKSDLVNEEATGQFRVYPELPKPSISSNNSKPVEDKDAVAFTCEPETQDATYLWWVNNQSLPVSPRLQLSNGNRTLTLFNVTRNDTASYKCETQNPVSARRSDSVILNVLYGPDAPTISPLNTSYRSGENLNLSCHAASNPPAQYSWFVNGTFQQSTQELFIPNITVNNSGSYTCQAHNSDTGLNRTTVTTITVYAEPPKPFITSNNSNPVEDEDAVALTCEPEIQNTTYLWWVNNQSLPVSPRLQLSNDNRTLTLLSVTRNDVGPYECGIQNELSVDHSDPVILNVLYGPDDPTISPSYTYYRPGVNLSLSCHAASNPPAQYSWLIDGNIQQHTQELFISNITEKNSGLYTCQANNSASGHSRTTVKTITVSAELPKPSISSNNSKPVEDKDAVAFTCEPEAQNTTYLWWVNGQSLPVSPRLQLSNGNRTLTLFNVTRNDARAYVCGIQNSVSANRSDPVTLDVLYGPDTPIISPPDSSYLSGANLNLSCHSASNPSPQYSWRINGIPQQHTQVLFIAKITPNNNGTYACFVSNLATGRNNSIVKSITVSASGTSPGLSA

GCGCGGGGCACGTTTATCCGTCCCTCCTAGTGGCGTGCCCCGCGC (structured_DNA, FITC-modified T at Site 1 (position only in Fig 2A)) [IgE aptamer, FITC at Site 1]
no binding: all assays above
